From the domain aggregation screens of Martell et al. (2025)

Assay: soluble fraction after stress (log2 fold change); higher = more stays soluble; pooled small domains, quantitative proteomics
Details: stress: pH 4
Method in brief: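 Aggregation propensity is read out as the fold change in how much of each domain remains soluble after acid stress. The custom small-domain libraries were pooled, held at pH 4 and analysed with high-throughput quantitative proteomics. On the log2 scale used, higher values mean more of the domain stayed soluble.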

| Sequence | soluble fraction (log2) |
| --- | --- |
| HMKSNIIPLSLKKPQRLDIFLTNYFVDLSRTQIKKMITDGNIKVNDLIAKPSLKLIGDEIIFYTLPK | -0.698 |
| HMDDADPYEILGVERDAEDAEIKRAYHDLIRENHPDRLMAEGLPQEMIDVANEKVAFINDAYDRIEKLRGM | -0.89 |
| HMRAAFEHLTIGQTVSGLVKSQARGVSLVEIEGQTVAMRLPQPVAVGDTLRLRFAGHMPQPVFLLDT | -0.0299 |
| HMRHLSVPNRQVEGALDHIRSQGWLAEGMRVFASEDGSARLIPLGPGAPLEMLEPLAKFDVISHEGKPY | -0.771 |
| HMIEESTVPDLKGKSQEDAIKLLEDANLKYQIVEEESKKIEAGYVISQETDANKKVNAGDTVIIHVST | -0.0907 |
| HMEDIASESVKRVIRKIIDDEDKKSPLSDQAIVEILAKGEGIVIARRTVAKYREMMGILPSSKRKKH | 0.0959 |
| HMLNDTGAIRAAVEEVLAANEKSVNEYKGGKTQAFQYLIGQSMRALRGKAPAQEVTKLLKELLG | -0.0483 |
| HMTMRFVVADGQNFGSIAQSKALEAVKKGNTEFNYKDVDYTVDIQSDDFYVVYQGRDIMGYASR | -1.89 |
| HMEVMYFIYQQEEPMRIDKFLVNEMEDFSRNSIQIYIKDNHVLVNDKVVKANYILKKGDAISITIPDPI | -0.768 |
| HMTNIELYQRLLNLGFTPAQAKILLVQYDETRLTDNLNYVDFKKQQGNIENLPAYTTTIIKKDVRL | 0.0954 |
| HMINYYELLKLDMNAAHEEINDAIKLESEKNTIPEDQIRTMKSIFFNTEFKKEYDQRLMNFLLT | -1.28 |
| HMIRQGTKQALLIEMLQRPEGASITEIVEATSWQAHTARGAISGALKKKLGLPITSEKHPERGTVYKL | -0.55 |
| HMKDIIVDPQGQYNHPGVPTRIPSSDITMKGVGYPVLGIADNGQKQMMQPGQDYKFPGAKYVDEYPQM | 0.0501 |
| HMDGYVPAERIASEVGVSARTITREMHGLEMTLMPYGIALLRRTGAGFMLAGTAKALADLRKHMTEDADTQ | 0.167 |
| HMDRSRAEIDLGHVETAIRTLAEGGMVQEYAIGGRSLKRYKMGELLQLKAELENEINMERRKEKMRQ | 0.184 |
| HMSTFKSYRGKITASSGVNIRTGAGTNYNKNGALTYNSVVTIVDEKKVSGTTWGKLADGRGWISLDYLKK | 0.105 |
| HMETMSYAEFNAIRIGKAKLMLADPSLKIWEISEAVGYTDTAHFARTFKKLEGMSANEYRNSL | -0.713 |
| HMEKSQIHLIHTRYVNPEQLVPILSMVIPAENIYVKSDSNLIIINGSSEMLREVESIVSKLDVPS | -0.687 |
| HMDAEEISILLEKAVLQLPEKQKMIFQLKYFEDLSYKDIQIITGGSIGGLKANYHHAVTKIEKLLS | -0.892 |
| HMVAPKDIVMPSFVGKKYTDVVNTPNSSYTFEFKKDEKNSSDYAVGFIMDQKPKAGETVKSNATVTLIVSK | 0.0982 |
| HMQSFIEELLPVVDNFERSLAVVDPSDEIKNFLKGYEMIYNQLMEVLKSQGVEVIKTEGEEFDPNFHQA | -0.776 |
| HMEYSNLGEALRRLSEIDLQIILLKYSHGFSIKEISKILDIKEVNLYKRNKRALNKLKKILAEMEVLSN | -0.272 |
| HMEPVIELGDRTLPIEITRHRRARRLTLRLAADGSAVRITLPHWARSAEATAFAHARRDWLAAQLAK | 0.108 |
| HMKIGIYPGTFDPITHGHTDIIRRSLRVFDKVVVAVAPNPSKHPLFTLTERLEMIRIVMKELEHVEVT | 0.117 |
| HMYAGTWISESGQWKYRNDDGSFAKGWFQDLDSRWYYFDANGHMLSDTLTPDGYRLGEDGAWVND | -1.42 |
| HMKSEIRKKNSQIILDAAEHEFSVHGYRGTSVQMIADRSGLPKANLHYYYKSKSALYGAVLDRIL | 0.109 |
| HMDDENKIEVMINEEKVQLTGKDKYVFVDIFNYIDMDLTRIHGNLVLKLNGENASHNSLLKSGDKIEARWE | -1.92 |
| HMAEWLFDARKIPDEVMNYLRRIAVQAIEEKHYSPELVADLLGISRSSIYDWLNWYRNGGEEDLDTRKA | -0.543 |
| HMRAVEGKRLKRLLRTNLIAIERDQILQYPLRKRPLAIVTRAVRATNPDAVIVNDAGDDVFARALDVLLAS | -1.23 |
| HMSDKPIFIDTAGIAALSAIGFSKYQATIIFNYIKKGGAIYTVKDLAKIYSIDQKTIDLTQSKIIFS | 0.22 |
